Results taken from patent publication US10487331.

Tests used:
[1] = test system: surface proteins of Aggregatibacter actinomycetemcomitans (whole cells) (Aggregatibacter actinomycetemcomitans); settings: whole-cell binding, real-time PCR of eluted aptamer, SELEX buffer, room temperature
[2] = test system: surface proteins of Porphyromonas gingivalis (whole cells) (Porphyromonas gingivalis); settings: whole-cell binding, real-time PCR of eluted aptamer, SELEX buffer, room temperature

Sequence	Kd [1] [nM]	Kd [2] [nM]
TCCCTACGGCGCTAACCGTATGTGTACCCGGTGGGGCGCGATTGACGCCACCGTGCTACAAC [A. actinomycetemcomitans aptamer]	3.5	–
TCCCTACGGCGCTAACTGTAACTGGGAGCGGACCTAGGTTACATGAGCCACCGTGCTACAAC [P. gingivalis aptamer]	–	4.59
